Reference: article PMC5437307 (2017)
Values joined by “and” are separate entries in the source; they are usually repeats but may differ in a detail not shown here. Equal values may be shown once.

What was measured:
IL-2Rβγc (Homo sapiens) = IL-2Rβγc (Homo sapiens) (UniProt P14784); details: cited from earlier work
[1] = target: T1, F42A mutant (IL-2-Fc format) (human, UniProt P60568 21-153, F42A); test: SPR
[2] = target: T1, F42A mutant (IL-2-Fc format); test: SPR; remark: listed apart in the source

Sequence of IL-2Rβγc (Homo sapiens) (P14784 27-240, chain 1 of 2): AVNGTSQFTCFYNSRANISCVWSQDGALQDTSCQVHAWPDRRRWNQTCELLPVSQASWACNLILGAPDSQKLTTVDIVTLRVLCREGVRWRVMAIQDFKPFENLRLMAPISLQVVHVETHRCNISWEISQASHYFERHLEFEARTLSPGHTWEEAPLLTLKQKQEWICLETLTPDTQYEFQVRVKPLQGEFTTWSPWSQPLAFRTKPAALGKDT
Sequence of IL-2Rβγc (Homo sapiens) (P31785 23-262, chain 2 of 2, further chain): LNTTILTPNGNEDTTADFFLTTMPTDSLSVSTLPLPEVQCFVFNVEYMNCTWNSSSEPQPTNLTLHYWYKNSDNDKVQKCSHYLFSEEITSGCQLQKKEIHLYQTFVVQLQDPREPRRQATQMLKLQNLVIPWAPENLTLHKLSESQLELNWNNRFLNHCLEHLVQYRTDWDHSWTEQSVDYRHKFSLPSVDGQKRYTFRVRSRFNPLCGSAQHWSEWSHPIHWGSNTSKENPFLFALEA

Molecule: IL-2 (from UniProt P60568)
- Kd (IL-2Rβγc (Homo sapiens)): 1 nM

B1: hCD25-His (receptor)
chain: ELCDDDPPEIPHATFKAMAYKEGTMLNCECKRGFRRIKSGSLYMLCTGNSSHSSWDNQCQCTSSATRNTTKQVTPQPEEQKERKTTEMQSPMQPVDQASLPGHCREPPPWENEATERIYHFVVGQMVYYQCVQGYRALHRGPAESVCKMTHGKTRWTQPQLICTGEMETSQFPGEEKPQASPEGRPESETSCLVTTTDFQIQTEMAATMETSIFTTEYQ
- Kd [1]: 1080 nM and 1100 nM
- koff [2]: 0.325 s⁻¹
